The results in this text go back to IntAct's records for PubMed 32296183.

Some targets named below: comt_human COMT (UniProt P21964); cxa5_human GJA5 (UniProt P36382); bik_human BIK (UniProt Q13323); tm52b_human TMEM52B (UniProt Q4KMG9); cxa8_human GJA8 (UniProt P48165).
The target of another test is T1, FAM209A (UniProt Q5JX71).
T1 sequence: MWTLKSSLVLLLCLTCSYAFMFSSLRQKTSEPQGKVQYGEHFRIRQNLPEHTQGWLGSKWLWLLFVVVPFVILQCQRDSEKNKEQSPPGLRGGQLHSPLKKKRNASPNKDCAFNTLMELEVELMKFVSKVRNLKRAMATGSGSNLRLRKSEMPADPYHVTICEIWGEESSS

For a further test, the target named is T2, pdz1i_human PDZK1IP1 (UniProt Q13113).
T2 sequence: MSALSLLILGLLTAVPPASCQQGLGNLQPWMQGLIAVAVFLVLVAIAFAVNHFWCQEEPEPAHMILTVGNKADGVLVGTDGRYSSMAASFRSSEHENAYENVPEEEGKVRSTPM

In a further test the target is T3, cgrf1_human CGRRF1 (UniProt Q99675).
T3 sequence: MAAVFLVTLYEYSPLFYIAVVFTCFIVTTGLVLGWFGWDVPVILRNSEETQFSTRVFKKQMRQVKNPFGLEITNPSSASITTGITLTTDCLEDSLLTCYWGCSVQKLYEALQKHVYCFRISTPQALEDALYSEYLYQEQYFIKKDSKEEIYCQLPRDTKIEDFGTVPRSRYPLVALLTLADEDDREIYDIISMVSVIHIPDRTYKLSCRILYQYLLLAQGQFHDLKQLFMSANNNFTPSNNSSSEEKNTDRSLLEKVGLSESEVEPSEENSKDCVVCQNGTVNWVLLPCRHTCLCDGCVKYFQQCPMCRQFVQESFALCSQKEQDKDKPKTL

Another test addresses T4, crtp1_human CYSRT1 (UniProt A8MQ03).
T4 sequence: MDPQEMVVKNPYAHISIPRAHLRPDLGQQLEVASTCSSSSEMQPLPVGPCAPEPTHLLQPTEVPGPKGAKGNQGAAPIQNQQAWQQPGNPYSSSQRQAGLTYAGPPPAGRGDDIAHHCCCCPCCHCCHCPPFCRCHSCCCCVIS

The target of the next test is T5, jam1_human F11R (UniProt Q9Y624).
T5 sequence: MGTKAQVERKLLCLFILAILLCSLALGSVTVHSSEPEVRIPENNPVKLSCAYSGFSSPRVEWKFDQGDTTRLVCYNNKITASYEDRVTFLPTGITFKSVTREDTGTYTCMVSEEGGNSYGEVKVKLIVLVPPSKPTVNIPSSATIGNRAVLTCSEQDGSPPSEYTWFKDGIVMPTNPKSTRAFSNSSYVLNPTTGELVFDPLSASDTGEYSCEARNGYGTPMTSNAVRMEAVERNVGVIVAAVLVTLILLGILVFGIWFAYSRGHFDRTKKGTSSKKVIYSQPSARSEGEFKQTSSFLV

The next test concerns the target T6, cld7_human CLDN7 (UniProt O95471).
T6 sequence: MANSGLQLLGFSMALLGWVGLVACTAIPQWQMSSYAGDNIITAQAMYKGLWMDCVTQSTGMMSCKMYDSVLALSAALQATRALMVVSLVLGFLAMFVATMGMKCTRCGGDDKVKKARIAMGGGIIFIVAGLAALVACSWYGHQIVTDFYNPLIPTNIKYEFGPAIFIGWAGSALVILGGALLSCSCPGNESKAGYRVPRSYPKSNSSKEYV

In the case of “Acyltransferase PGAP2 (Homo sapiens) (from UniProt Q9UHJ9-5) T160I”, the “effect of a mutation on the interaction” value is recorded as “with no effect” with FAM209A; “with no effect” in the test with pdz1i_human PDZK1IP1; “with no effect” with comt_human COMT; “with no effect” with cxa5_human GJA5; “with no effect” with cgrf1_human CGRRF1; “disrupting interaction strength” with crtp1_human CYSRT1. Further, the “effect of a mutation on the interaction” value is “with no effect” in the test with bik_human BIK; “disrupting interaction strength” with tm52b_human TMEM52B; “disrupting interaction strength” in the test with jam1_human F11R; “with no effect” in the test with cxa8_human GJA8; “disrupting interaction strength” with cld7_human CLDN7.
